This passage reports Tm results from FireProtDB (doi:10.1002/pro.5560041213).

A word on the Tm: it is the temperature at the midpoint of the melting transition.

B1: High-potential iron-sulfur protein isozyme 1, P04168 (parent)
chain: EPRAEDGHAHDYVNEAADASGHPRYQEGQLCENCAFWGEAVQDGWGRCTHPDFDEVLVKAEGWCSVYAPAS

This data set covers variants of B1. The note with it: Halorhodospira halophila, Thermal, DSC, reversible: yes, structure 2HIP, whole UniProt chain shown.

Consider EPRAEDGHAHDHVNEAADASGHPRYQEGQLCENCAFWGEAVQDGWGRCTHPDFDEVLVKAEGWCSVYAPAS [Y12H], for which the melting temperature (Tm) came out at 42.2 °C (pH 7, MOPS 20 mM) and 39 °C (pH 9, TAPS 20 mM).

As for EPRAEDGHAHDWVNEAADASGHPRYQEGQLCENCAFWGEAVQDGWGRCTHPDFDEVLVKAEGWCSVYAPAS [Y12W], under “pH 7, MOPS 20 mM”, the midpoint of thermal melting (Tm) amounted to 37.4 °C.

In the case of EPRAEDGHAHDFVNEAADASGHPRYQEGQLCENCAFWGEAVQDGWGRCTHPDFDEVLVKAEGWCSVYAPAS [Y12F], the Tm runs as follows: (pH 9, TAPS 20 mM) 54.4 °C; (pH 10, CAPS 20 mM) 54.2 °C; (pH 10.8, CHES 20 mM) 37.1 °C.
